Source: patent US20190374662A1 (published 2019)
Positions count from the first letter of the chain named. Names and notes keep the numbering of the source.

T1: CEACAM6 protein on 721.221 cells (human, UniProt P40199 35-142)
T1 construct: also called CD66c
T1 sequence: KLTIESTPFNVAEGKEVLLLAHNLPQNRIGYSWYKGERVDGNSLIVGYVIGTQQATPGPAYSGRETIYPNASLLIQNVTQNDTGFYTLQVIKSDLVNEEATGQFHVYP

T2: CD99-Ig fusion protein (control) (human, UniProt P14209 23-122, limits assumed)
T2 construct: extracellular domain; Control fusion protein produced in COS-7 cells; not shown: human IgG1 (Fc portion)
T2 sequence (looked up): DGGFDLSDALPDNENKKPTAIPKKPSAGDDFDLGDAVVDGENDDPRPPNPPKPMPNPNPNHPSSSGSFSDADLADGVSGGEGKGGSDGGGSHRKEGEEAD

B1: CEACAM1-Ig fusion protein (extracellular portion of CEACAM1 fused to the Fc portion of human IgG1) (Fc fusion)
chain: QLTTESMPFNVAEGKEVLLLVHNLPQQLFGYSWYKGERVDGNRQIVGYAIGTQQATPGPANSGRETIYPNASLLIQNVTQNDTGFYTLQVIKSDLVNEEATGQFHVYP
notes: also called CCM1-Ig; soluble CEACAM1-Ig; not shown: Fc portion of human IgG1
B2: CCM6-S43R (CEACAM6 with 43S changed to 43R) (receptor)
chain: T1 sequence with S43R
notes: also called CEACAM6-S43R
B3: CCM1-Q44L (CEACAM1 with 44Q changed to 44L) (receptor)
chain: B1 chain with Q44L
notes: also called CEACAM1-Q44L
B4: CCM1-RQ43,44SL (CEACAM1 with S and L at positions 43 and 44 instead of R and Q) (receptor)
chain: B1 chain with R43S, Q44L
notes: also called CEACAM1-RQ43,44SL
B5: CCM6-L44Q (CEACAM6 with 44L changed to 44Q) (receptor)
chain: T1 sequence with L44Q
notes: also called CEACAM6-L44Q
B6: CCM1-R43A (CEACAM1 with 43R changed to 43A) (receptor)
chain: B1 chain with R43A
notes: The expression level was lower than that of the other transfectants; also called CEACAM1-R43A
B7: CCM6-SL43,44RQ (CEACAM6 with R and Q at positions 43 and 44 instead of S and L) (receptor)
chain: T1 sequence with S43R, L44Q
notes: also called CEACAM6-SL43,44RQ

How the values were obtained:
Experiment in all cases: flow cytometry on stably transfected 721.221 cells
[1] = biological target: T1, CEACAM6 protein on 721.221 cells
[2] = biological target: B1
[3] = biological target: T2, CD99-Ig fusion protein (control)

| binding result [1] | binding result [2] | binding result [3] | Binder |
| --- | --- | --- | --- |
| no binding | – | – | B1 |
| – | no binding | – | B2 |
| – | no binding | – | B3 |
| – | no binding | no binding | B4 |
| – | no binding | – | B5 |
| – | no binding | – | B6 |
| – | – | no binding | B7 |
